Reference: patent US20250296971A1, “GASTRIC INHIBITORY PEPTIDE RECEPTOR LIGANDS” (priority 2021, published 2025)
*1 amine or outer side, *2 acyl side, *3 side chain or, on linkers, in order; H or OH if unused. Bridges are numbered along the chain shown (N, C = ends). Primed or numbered codes have the meaning given here. [ ]: non-standard residue; d: D form. The star is where a group is joined. Ttds″ = 1,13-diamino-4,7,10-trioxatridecan-succinamic acid (linker), O=C(CCC(=O)[*:2])NCCCOCCOCCOCCCN[*:1]; Ttds = 1,13-diamino-4,7,10-trioxatridecan-succinamic acid, NCCCOCCOCCOCCCNC(=O)CCC(=O)*; DOTA(In) = O=C1CN2CCN3CCN(CC(=O)*)CCN(CC2)CC(=O)[O][In]([O]1)[O]C(=O)C3; Ttds(3) = 1,13-diamino-4,7,10-trioxatridecan-succinamic acid linker; APAc″ = 4-amino-1-carboxymethylpiperidine, NC1CCN(CC(=O)*)CC1; dE(AGLU) = D-glutamic acid bearing 1-amino-1-deoxy-D-glucitol; Ttds(4) = 1,13-diamino-4,7,10-trioxatridecan-succinamic acid; Pro(trans-4-NH2) = O=C([C@@H]1C[C@@H](N[*:3])CN1[*:1])[*:2]; DOTA = O=C(O)CN1CCN(CC(=O)O)CCN(CC(=O)*)CCN(CC(=O)O)CC1; 3MeBn = 3-methyl-benzylidene (derived from 1,3-xylene); 2Lut = 2,6-lutidylidene bridge between two thiols; Trp(5-Cl) = N[C@@H](Cc1c[nH]c2ccc(Cl)cc12)C(=O)O; Pyridine(2,6-diCH2) = c1cc(C[*:1])nc(C[*:2])c1; 2Lut″ = 2,6-lutidylidene linking two thiols; APAc = 4-amino-1-carboxymethylpiperidine; mXylylene = c1cc(C[*:1])cc(C[*:2])c1; LuDOTA = DOTA Lutetium(III) complex; Glutaryl = O=C(CCCC(=O)[*:2])[*:1]; AGLU = 1-amino-1-deoxy-D-glucitol; Cya = N[C@@H](CS(=O)(=O)O)C(=O)O; Hyp = O=C(O)[C@@H]1C[C@@H](O)CN1; Cha = N[C@@H](CC1CCCCC1)C(=O)O; Cysteamide = C(CS[*:3])N[*:1]; Suc = O=C(CCC(=O)[*:2])[*:1]; N(CH2CH2)2NH = C1CN(*)CCN1; Api = NC1(C(=O)O)CCNCC1; Thp = NC1(C(=O)O)CCOCC1; Dap = NC[C@H](N)C(=O)O; NH(CH2)5NH2 = NCCCCCN*; DOTA′ = DOTA chelator; Aib = CC(C)(N)C(=O)O

Experiments:
[1] = target: biotinylated extracellular domain of the human GIP receptor (bioGIPR) (human) (UniProt P48546); test: SPR single cycle kinetics, bioGIPR captured on chip; category A: pKD >9.0
Sequence of biotinylated extracellular domain of the human GIP receptor (bioGIPR) (human) (P48546 24-138 limits assumed): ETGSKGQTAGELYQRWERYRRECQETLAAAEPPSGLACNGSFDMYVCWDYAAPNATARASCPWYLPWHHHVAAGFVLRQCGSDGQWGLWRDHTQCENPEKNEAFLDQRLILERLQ

[2] = target: biotinylated extracellular domain of the human GIP receptor (bioGIPR) (human) (UniProt P48546); test: SPR single cycle kinetics, bioGIPR captured on chip; category A: t1/2 >15 min
[3] = target: human Gastric Inhibitory Peptide Receptor (human) (UniProt P48546); test: FACS competition with GIP-057 on CHO-K1-hGIPR cells; pIC50 category A: >8.0
Sequence of human Gastric Inhibitory Peptide Receptor (human) (P48546 22-466 limits assumed): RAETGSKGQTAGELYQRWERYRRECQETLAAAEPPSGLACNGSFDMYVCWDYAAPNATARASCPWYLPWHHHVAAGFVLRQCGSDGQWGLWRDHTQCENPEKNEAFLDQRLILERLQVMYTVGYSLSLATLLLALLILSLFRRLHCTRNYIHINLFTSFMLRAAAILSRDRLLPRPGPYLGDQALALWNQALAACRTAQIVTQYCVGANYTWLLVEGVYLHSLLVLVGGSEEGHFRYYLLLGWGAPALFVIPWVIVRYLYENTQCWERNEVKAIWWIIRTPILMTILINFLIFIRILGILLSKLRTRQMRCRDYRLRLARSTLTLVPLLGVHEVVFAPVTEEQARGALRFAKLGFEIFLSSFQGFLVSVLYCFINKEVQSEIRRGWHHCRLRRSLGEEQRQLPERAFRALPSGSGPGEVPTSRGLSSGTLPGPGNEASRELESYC

[4] = target: human Gastric Inhibitory Peptide Receptor (GIPR) (human) (UniProt P48546); test: FACS competition vs biotinylated GIP-057 on CHO-K1-hGIPR cells; category A: pIC50 >8.0
Sequence of human Gastric Inhibitory Peptide Receptor (GIPR) (human) (P48546 22-466 limits assumed): as above

Row | Binder | pKD [1] [pkd] | t1/2 [2] [min] | pIC50 [3] [pic50] | pIC50 [4] [pic50]
1 | {DOTA-Ttds″}-DW[Trp(5-Cl)]PE[dL]C[Api]LI-Cysteamide (not fully specified (bridges); printed as DOTA-Ttds-Asp-Trp-5Clw-Pro-Glu-leu-[Cys(2Lut)-Apc-Leu-Ile-AET]) [DOTA-Ttds-Asp-Trp-5Clw-Pro-Glu-leu-[Cys(2Lut)-Apc-Leu-Ile-AET]] | > 9 | > 15 | > 8 | –
2 | Ac-DW[Trp(5-Cl)][Hyp]V[dL]C[Thp]LIC-NH2 (linker 7-11 via Pyridine(2,6-diCH2)) [Ac-Asp-Trp-5Clw-Hyp-Val-leu-[Cys(2Lut)-Thp-Leu-Ile-Cys]-NH2] | – | – | – | > 8
3 | {DOTA(In)-APAc″}-DW[Trp(5-Cl)]PE[dL]C[Aib]LI[Cysteamide] (linker 7-11 via 3MeBn; also: DOTA as indium complex (InDOTA)) [InDOTA-APAc-Asp-Trp-5Clw-Pro-Glu-leu-[Cys(3MeBn)-Aib-Leu-Ile-AET]] | > 9 | > 15 | > 8 | –
4 | Ac-[Cya]W[Trp(5-Cl)][Hyp]E[dL]C[Aib]LI[Cysteamide] (linker 7-11 via 2Lut″) [Ac-Cya-Trp-5Clw-Hyp-Glu-leu-[Cys(2Lut)-Aib-Leu-Ile-AET]] | > 9 | > 15 | > 8 | –
5 | Suc-W[Trp(5-Cl)][Hyp]E[dL]C[Thp]LIC-{APAc-Lys(DOTA)-NH2} (linker 6-10 via 2Lut) [HO-Succinyl-Trp-5Clw-Hyp-Glu-leu-[Cys(2Lut)-Thp-Leu-Ile-Cys]-APAc-Lys(DOTA)-NH2] | > 9 | > 15 | > 8 | –
6 | Suc-W[Trp(5-Cl)][Hyp]E[dL]C[Api](DOTA(In))LI[Cysteamide] (linker 6-10 via 2Lut; also: In complex of DOTA) [HO-Succinyl-Trp-5Clw-Hyp-Glu-leu-[Cys(2Lut)-Apc(InDOTA)-Leu-Ile-AET]] | > 9 | > 15 | > 8 | –
7 | Suc-W[Trp(5-Cl)][Hyp]E[dL]C[Api]LIC-{APAc-Lys(DOTA)-NH2} (linker 6-10 via 2Lut) [HO-Succinyl-Trp-5Clw-Hyp-Glu-leu-[Cys(2Lut)-Apc-Leu-Ile-Cys]-APAc-Lys(DOTA)-NH2] | > 9 | > 15 | > 8 | –
8 | Suc-W[Trp(5-Cl)][Hyp]E[dL]C[Thp]LIC-{NH(CH2)5NH2-DOTA′} (linker 6-10 via 2Lut) [HO-Succinyl-Trp-5Clw-Hyp-Glu-leu-[Cys(2Lut)-Thp-Leu-Ile-Cys]-Ape-DOTA] | > 9 | > 15 | > 8 | –
9 | Suc-W[Trp(5-Cl)][Hyp]E[dL]C[Thp]LIC-{N(CH2CH2)2NH-DOTA′} (linker 6-10 via 2Lut) [HO-Succinyl-Trp-5Clw-Hyp-Glu-leu-[Cys(2Lut)-Thp-Leu-Ile-Cys]-PP-DOTA] | > 9 | > 15 | > 8 | –
10 | Suc-W[Trp(5-Cl)][Hyp]E[dL]C[Api](DOTA)LI[Cysteamide] (linker 6-10 via 2Lut) [HO-Succinyl-Trp-5Clw-Hyp-Glu-leu-[Cys(2Lut)-Apc(DOTA)-Leu-Ile-AET]] | > 9 | > 15 | > 8 | –
11 | {DOTA-APAc″}-DW[Trp(5-Cl)][Hyp]E[dL][Dap][Thp]LI[Cysteamide] (linker (positions not given here) via mXylylene; not fully specified (bridges); printed as DOTA-APAc-Asp-Trp-5Clw-Hyp-Glu-leu-[Dap(3MeBn)-Thp-Leu-Ile-AET]) [DOTA-APAc-Asp-Trp-5Clw-Hyp-Glu-leu-[Dap(3MeBn)-Thp-Leu-Ile-AET]] | > 9 | > 15 | > 8 | –
12 | {AGLU-Glutaryl}-DW[Trp(5-Cl)][Hyp]E[dL]C[Api](DOTA(In))LI[Cysteamide] (thioether (positions not given here) via Pyridine(2,6-diCH2); not fully specified (bridges); printed as AGLU-Glutar-Asp-Trp-5Clw-Hyp-Glu-leu-[Cys(2Lut)-Apc(InDOTA)-Leu-Ile-AET]; also: In complex of DOTA) [AGLU-Glutar-Asp-Trp-5Clw-Hyp-Glu-leu-[Cys(2Lut)-Apc(InDOTA)-Leu-Ile-AET]] | > 9 | > 15 | > 8 | –
13 | {AGLU-Glutaryl-APAc}-DW[Trp(5-Cl)][Pro(trans-4-NH2)]E[dL]C[Api]LIC-{APAc-dE(AGLU)-NH2} (linker 7-11 via Pyridine(2,6-diCH2); not fully specified (residue 8)) | > 9 | > 15 | > 8 | –
14 | Ac-DW[Trp(5-Cl)][Hyp]A[dL]C[Thp]LIC-NH2 (linker 7-11 via Pyridine(2,6-diCH2)) [Ac-Asp-Trp-5Clw-Hyp-Ala-leu-[Cys(2Lut)-Thp-Leu-Ile-Cys]-NH2] | – | – | – | > 8
15 | {DOTA(In)-APAc″}-DW[Trp(5-Cl)][Hyp]E[dL]C[Thp]LI[Cysteamide] (linker 7-11 via 2Lut; also: DOTA as indium complex (InDOTA)) [InDOTA-APAc-Asp-Trp-5Clw-Hyp-Glu-leu-[Cys(2Lut)-Thp-Leu-Ile-AET]] | > 9 | > 15 | > 8 | –
16 | {DOTA-Ttds}-DW[Trp(5-Cl)][Pro(trans-4-NH2)]E[dL][Dap][Api]LI[Cysteamide] (linker 7-11 via Pyridine(2,6-diCH2)) [DOTA-Ttds-Asp-Trp-5Clw-Tap-Glu-leu-[Dap(2Lut)-Apc-Leu-Ile-AET]] | > 9 | > 15 | > 8 | –
17 | Ac-DW[Trp(5-Cl)][Hyp]E[dL]C[Thp][Cha]IC-NH2 (linker 7-11 via Pyridine(2,6-diCH2)) [Ac-Asp-Trp-5Clw-Hyp-Glu-leu-[Cys(2Lut)-Thp-Cha-Ile-Cys]-NH2] | – | – | – | > 8
18 | {AGLU-Glutaryl-APAc}-DW[Trp(5-Cl)][Hyp]E[dL]C[Api](DOTA)LIC-{APAc-dE(AGLU)-NH2} (linker 7-11 via Pyridine(2,6-diCH2)) [AGLU-Glutar-APAc-Asp-Trp-5Clw-Hyp-Glu-leu-[Cys(2Lut)-Apc(DOTA)-Leu-Ile-Cys]-APAc-glu(AGLU)-NH2] | > 9 | > 15 | > 8 | –
19 | {LuDOTA-Ttds}-DW[Trp(5-Cl)]PE[dL]C[Aib]LI[Cysteamide] (linker 7-11 via mXylylene) [LuDOTA-Ttds-Asp-Trp-5Clw-Pro-Glu-leu-[Cys(3MeBn)-Aib-Leu-Ile-AET]] | > 9 | > 15 | > 8 | –
20 | DWXXEXCXLIC (N-term AGLU-Glutar; 5Clw; Hyp; leu (D-Leu); thioether cycle [Cys(2Lut)..Cys]; Apc(AGLU-Glutar); C-term APAc-Lys(DOTA)-NH2) [AGLU-Glutar-Asp-Trp-5Clw-Hyp-Glu-leu-[Cys(2Lut)-Apc(AGLU-Glutar)-Leu-Ile-Cys]-APAc-Lys(DOTA)-NH2] | > 9 | > 15 | > 8 | –
21 | Ac-DW[Trp(5-Cl)][Pro(trans-4-NH2)](DOTA)E[dL]C[Thp]LIC-NH2 (linker 7-11 via Pyridine(2,6-diCH2)) [Ac-Asp-Trp-5Clw-Tap(DOTA)-Glu-leu-[Cys(2Lut)-Thp-Leu-Ile-Cys]-NH2] | > 9 | > 15 | > 8 | –
22 | {DOTA-Ttds}-DW[Trp(5-Cl)][Pro(trans-4-NH2)]E[dL]C[Api]LI[Cysteamide] (linker 7-11 via Pyridine(2,6-diCH2)) [DOTA-Ttds-Asp-Trp-5Clw-Tap-Glu-leu-[Cys(2Lut)-Apc-Leu-Ile-AET]] | > 9 | > 15 | > 8 | –
23 | Suc-W[Trp(5-Cl)][Hyp]E[dL]C[Thp]LIC-{Ttds(4)-Lys(DOTA)-NH2} (linker 6-10 via Pyridine(2,6-diCH2)) [HO-Succinyl-Trp-5Clw-Hyp-Glu-leu-[Cys(2Lut)-Thp-Leu-Ile-Cys]-Ttds-Lys(DOTA)-NH2] | > 9 | > 15 | > 8 | –
24 | Ac-DW[Trp(5-Cl)][Hyp]S[dL]C[Thp]LIC-NH2 (linker 7-11 via Pyridine(2,6-diCH2)) [Ac-Asp-Trp-5Clw-Hyp-Ser-leu-[Cys(2Lut)-Thp-Leu-Ile-Cys]-NH2] | – | – | – | > 8
25 | {DOTA-APAc″}-DW[Trp(5-Cl)][Hyp]E[dL]C[Thp]LI[Cysteamide] (linker (positions not given here) via Pyridine(2,6-diCH2); not fully specified (bridges); printed as DOTA-APAc-Asp-Trp-5Clw-Hyp-Glu-leu-[Cys(2Lut)-Thp-Leu-Ile-AET]) [DOTA-APAc-Asp-Trp-5Clw-Hyp-Glu-leu-[Cys(2Lut)-Thp-Leu-Ile-AET]] | > 9 | > 15 | > 8 | –
26 | {DOTA(In)-Ttds}-DW[Trp(5-Cl)][Hyp]E[dL]C[Aib]LI[Cysteamide] (linker 7-11 via 3MeBn; also: DOTA as indium complex (InDOTA)) [InDOTA-Ttds-Asp-Trp-5Clw-Hyp-Glu-leu-[Cys(3MeBn)-Aib-Leu-Ile-AET]] | > 9 | > 15 | > 8 | –
